Data as given in paper PMC7525497, “Antibodies from Sierra Leonean and Nigerian Lassa fever survivors cross-react with recombinant proteins representing Lassa viruses of divergent lineages” (Scientific Reports, 2020).

Biological target: the molecule itself
Experiment: SDS-PAGE and western blotting

B1: LASV Zinc protein (Z), lineage IV (natural protein)
chain: MGNKQAKAPESKDSPRASLIPDATHLGPQFCKSCWFENKGLVECNNHYLCLNCLTLLLSVSNRCPICKMPLPTKLRPSAAPTAPPTGAADSIRPPPYSP
notes: also called Z protein; lineage IV Z
binding result: binds
